Assay results as given in patent publication US20200347130A1 (JIANGSU HENGRUI MEDICINE, published 2020).

Biological target: T1, CD96 extracellular region with His tag (CD96-His) (human, UniProt P40200 22-519)
T1 construct: also called CD96-ECD-His; Bio-CD96-His (biotin-labelled form)
T1 sequence: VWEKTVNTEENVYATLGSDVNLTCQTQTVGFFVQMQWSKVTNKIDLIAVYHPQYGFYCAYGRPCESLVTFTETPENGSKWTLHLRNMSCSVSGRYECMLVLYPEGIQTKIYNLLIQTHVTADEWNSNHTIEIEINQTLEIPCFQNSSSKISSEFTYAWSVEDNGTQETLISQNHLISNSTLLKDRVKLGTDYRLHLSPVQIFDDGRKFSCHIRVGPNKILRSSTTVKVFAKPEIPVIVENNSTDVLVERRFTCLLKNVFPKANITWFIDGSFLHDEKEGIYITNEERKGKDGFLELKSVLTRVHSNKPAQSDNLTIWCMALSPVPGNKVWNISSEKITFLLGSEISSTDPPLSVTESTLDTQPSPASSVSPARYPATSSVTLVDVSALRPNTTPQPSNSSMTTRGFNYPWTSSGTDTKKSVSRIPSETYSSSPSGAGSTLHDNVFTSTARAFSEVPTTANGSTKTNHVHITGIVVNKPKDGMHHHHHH
Assay: SPR (Biacore), antibody captured, CD96-ECD-His as mobile phase
From the text: Protein A biosensor chip was used to capture antibodies to be tested, then CD96 antigen was flowed on the surface of the chip, and real time reaction signal was detected by Biacore to obtain the binding and dissociation curve. After the dissociation of each experimental cycle was completed, the biosensor chip was washed and regenerated with a glycine-hydrochloric acid regeneration solution (pH 1.5).

Kd: 465 nM
B1: h1719-010 (antibody, V domains shown)
VH: EVTLKESGPVLVKPTETLTLTCTVSGFSLSSYGVSWVRQPPGKGLEWLGVIWGDGNTNYHSVLISRLTISKDTSKSQVVLTLTNMDPVDTATYYCAKQNYYGSRYGYPIDYWGQGTTVTVSS
VL: DIQMTQSPSSVSASVGDRVTITCKATQDVGTAVAWYQQKPGKAPKLLIYWASTRHTGVPSRFSGSGSGTDFTLTISSLQPEDFATYYCQQYGSSVLTFGGGTKVEIK
notes: Only variable regions are tied to this name
